From article PMC11041684

Target: Schlegelella thermodepolymerans KpsE (L77C, S138C) (Schlegelella thermodepolymerans)
Assay: cryo-EM structure; KpsMT(E151Q)-KpsE, co-expressed and purified in LMNG (100 mM NaCl, 50 mM Tris pH 7.5, 0.025% LMNG, 5 mM MgCl2), supplemented with 2 mM ATP before grid preparation

Q: For “Schlegelella thermodepolymerans KpsE (L77C, S138C) (natural protein)”, which stoichiometry N is on record?
A: 8
